Assay results as given in patent US11965039B2, “Compstatin analogues and their medical uses” (priority 2018, dated 2024).
Starred links: 1 amine or outer side, 2 acyl side, 3 side chain; linkers in the order of their positions; H or OH if unused. Positions of bridges follow the written chain, without caps; N, C: chain ends. Non-standard residues stand in square brackets, D forms with d. Groups on a side chain read outwards from the residue. *: point of attachment. Trp(1-Me) = Cn1cc(C[C@H](N)C(=O)O)c2ccccc21; C18 diacid = O=C(O)CCCCCCCCCCCCCCCCC(=O)*; γGlu = O=C(O)[C@H](CCC(=O)[*:2])N[*:1]; Sar = CNCC(=O)O

B1: Compound 112 (peptide)
peptide: Ac-SEYCI[Trp(1-Me)]QDWGEHRC[Sar]EGAK([γGlu-Gly-γGlu-C18 diacid])-NH2
modifications: disulfide 4-14
SMILES: CC[C@H](C)[C@@H]1NC(=O)[C@@H](NC(=O)[C@H](Cc2ccc(O)cc2)NC(=O)[C@H](CCC(=O)O)NC(=O)[C@H](CO)NC(C)=O)CSSC[C@@H](C(=O)N(C)CC(=O)N[C@@H](CCC(=O)O)C(=O)NCC(=O)N[C@@H](C)C(=O)N[C@@H](CCCCNC(=O)CC[C@H](NC(=O)CNC(=O)CC[C@H](NC(=O)CCCCCCCCCCCCCCCCC(=O)O)C(=O)O)C(=O)O)C(N)=O)NC(=O)[C@H](CCCNC(=N)N)NC(=O)[C@H](Cc2c[nH]cn2)NC(=O)[C@H](CCC(=O)O)NC(=O)CNC(=O)[C@H](Cc2c[nH]c3ccccc23)NC(=O)[C@H](CC(=O)O)NC(=O)[C@H](CCC(N)=O)NC(=O)[C@H](Cc2cn(C)c3ccccc23)NC1=O
B2: Compound 113 (peptide)
peptide: Ac-ASGEYCI[Trp(1-Me)]QDWGEHRC[Sar]EGEK([γGlu-Gly-γGlu-C18 diacid])-NH2
modifications: disulfide 6-16
SMILES: CC[C@H](C)[C@@H]1NC(=O)[C@@H](NC(=O)[C@H](Cc2ccc(O)cc2)NC(=O)[C@H](CCC(=O)O)NC(=O)CNC(=O)[C@H](CO)NC(=O)[C@H](C)NC(C)=O)CSSC[C@@H](C(=O)N(C)CC(=O)N[C@@H](CCC(=O)O)C(=O)NCC(=O)N[C@@H](CCC(=O)O)C(=O)N[C@@H](CCCCNC(=O)CC[C@H](NC(=O)CNC(=O)CC[C@H](NC(=O)CCCCCCCCCCCCCCCCC(=O)O)C(=O)O)C(=O)O)C(N)=O)NC(=O)[C@H](CCCNC(=N)N)NC(=O)[C@H](Cc2c[nH]cn2)NC(=O)[C@H](CCC(=O)O)NC(=O)CNC(=O)[C@H](Cc2c[nH]c3ccccc23)NC(=O)[C@H](CC(=O)O)NC(=O)[C@H](CCC(N)=O)NC(=O)[C@H](Cc2cn(C)c3ccccc23)NC1=O
B3: Compound 109 (peptide)
peptide: Ac-EGSAYCI[Trp(1-Me)]QDWGEHRC[Sar]EGEK([γGlu-Gly-γGlu-C18 diacid])-NH2
modifications: disulfide 6-16
SMILES: CC[C@H](C)[C@@H]1NC(=O)[C@@H](NC(=O)[C@H](Cc2ccc(O)cc2)NC(=O)[C@H](C)NC(=O)[C@H](CO)NC(=O)CNC(=O)[C@H](CCC(=O)O)NC(C)=O)CSSC[C@@H](C(=O)N(C)CC(=O)N[C@@H](CCC(=O)O)C(=O)NCC(=O)N[C@@H](CCC(=O)O)C(=O)N[C@@H](CCCCNC(=O)CC[C@H](NC(=O)CNC(=O)CC[C@H](NC(=O)CCCCCCCCCCCCCCCCC(=O)O)C(=O)O)C(=O)O)C(N)=O)NC(=O)[C@H](CCCNC(=N)N)NC(=O)[C@H](Cc2c[nH]cn2)NC(=O)[C@H](CCC(=O)O)NC(=O)CNC(=O)[C@H](Cc2c[nH]c3ccccc23)NC(=O)[C@H](CC(=O)O)NC(=O)[C@H](CCC(N)=O)NC(=O)[C@H](Cc2cn(C)c3ccccc23)NC1=O
B4: Compound 114 (peptide)
peptide: Ac-SEYCI[Trp(1-Me)]QDWGEHRC[Sar]EGEK([γGlu-Gly-γGlu-C18 diacid])-NH2
modifications: disulfide 4-14
SMILES: CC[C@H](C)[C@@H]1NC(=O)[C@@H](NC(=O)[C@H](Cc2ccc(O)cc2)NC(=O)[C@H](CCC(=O)O)NC(=O)[C@H](CO)NC(C)=O)CSSC[C@@H](C(=O)N(C)CC(=O)N[C@@H](CCC(=O)O)C(=O)NCC(=O)N[C@@H](CCC(=O)O)C(=O)N[C@@H](CCCCNC(=O)CC[C@H](NC(=O)CNC(=O)CC[C@H](NC(=O)CCCCCCCCCCCCCCCCC(=O)O)C(=O)O)C(=O)O)C(N)=O)NC(=O)[C@H](CCCNC(=N)N)NC(=O)[C@H](Cc2c[nH]cn2)NC(=O)[C@H](CCC(=O)O)NC(=O)CNC(=O)[C@H](Cc2c[nH]c3ccccc23)NC(=O)[C@H](CC(=O)O)NC(=O)[C@H](CCC(N)=O)NC(=O)[C@H](Cc2cn(C)c3ccccc23)NC1=O
B5: Compound 115 (peptide)
peptide: Ac-SEYCI[Trp(1-Me)]QDWGEHRC[Sar]EGKK([γGlu-Gly-γGlu-C18 diacid])-NH2
modifications: disulfide 4-14
SMILES: CC[C@H](C)[C@@H]1NC(=O)[C@@H](NC(=O)[C@H](Cc2ccc(O)cc2)NC(=O)[C@H](CCC(=O)O)NC(=O)[C@H](CO)NC(C)=O)CSSC[C@@H](C(=O)N(C)CC(=O)N[C@@H](CCC(=O)O)C(=O)NCC(=O)N[C@@H](CCCCN)C(=O)N[C@@H](CCCCNC(=O)CC[C@H](NC(=O)CNC(=O)CC[C@H](NC(=O)CCCCCCCCCCCCCCCCC(=O)O)C(=O)O)C(=O)O)C(N)=O)NC(=O)[C@H](CCCNC(=N)N)NC(=O)[C@H](Cc2c[nH]cn2)NC(=O)[C@H](CCC(=O)O)NC(=O)CNC(=O)[C@H](Cc2c[nH]c3ccccc23)NC(=O)[C@H](CC(=O)O)NC(=O)[C@H](CCC(N)=O)NC(=O)[C@H](Cc2cn(C)c3ccccc23)NC1=O
B6: Compound 110 (peptide)
peptide: Ac-EGSAYCI[Trp(1-Me)]QDWGEHRC[Sar]EGKK([γGlu-Gly-γGlu-C18 diacid])-NH2
modifications: disulfide 6-16
SMILES: CC[C@H](C)[C@@H]1NC(=O)[C@@H](NC(=O)[C@H](Cc2ccc(O)cc2)NC(=O)[C@H](C)NC(=O)[C@H](CO)NC(=O)CNC(=O)[C@H](CCC(=O)O)NC(C)=O)CSSC[C@@H](C(=O)N(C)CC(=O)N[C@@H](CCC(=O)O)C(=O)NCC(=O)N[C@@H](CCCCN)C(=O)N[C@@H](CCCCNC(=O)CC[C@H](NC(=O)CNC(=O)CC[C@H](NC(=O)CCCCCCCCCCCCCCCCC(=O)O)C(=O)O)C(=O)O)C(N)=O)NC(=O)[C@H](CCCNC(=N)N)NC(=O)[C@H](Cc2c[nH]cn2)NC(=O)[C@H](CCC(=O)O)NC(=O)CNC(=O)[C@H](Cc2c[nH]c3ccccc23)NC(=O)[C@H](CC(=O)O)NC(=O)[C@H](CCC(N)=O)NC(=O)[C@H](Cc2cn(C)c3ccccc23)NC1=O
B7: Compound 108 (peptide)
peptide: {C18 diacid}-EGSEYCI[Trp(1-Me)]QDWGEHRC[Sar]E-NH2
modifications: disulfide 6-16
SMILES: CC[C@H](C)[C@@H]1NC(=O)[C@@H](NC(=O)[C@H](Cc2ccc(O)cc2)NC(=O)[C@H](CCC(=O)O)NC(=O)[C@H](CO)NC(=O)CNC(=O)[C@H](CCC(=O)O)NC(=O)CCCCCCCCCCCCCCCCC(=O)O)CSSC[C@@H](C(=O)N(C)CC(=O)N[C@@H](CCC(=O)O)C(N)=O)NC(=O)[C@H](CCCNC(=N)N)NC(=O)[C@H](Cc2c[nH]cn2)NC(=O)[C@H](CCC(=O)O)NC(=O)CNC(=O)[C@H](Cc2c[nH]c3ccccc23)NC(=O)[C@H](CC(=O)O)NC(=O)[C@H](CCC(N)=O)NC(=O)[C@H](Cc2cn(C)c3ccccc23)NC1=O

target: Human C3 (Complement tech cat #A113c) (human, UniProt P01024 23-1663); assay: cell-based or functional assay
Sequence (P01024 23-1663 limits assumed): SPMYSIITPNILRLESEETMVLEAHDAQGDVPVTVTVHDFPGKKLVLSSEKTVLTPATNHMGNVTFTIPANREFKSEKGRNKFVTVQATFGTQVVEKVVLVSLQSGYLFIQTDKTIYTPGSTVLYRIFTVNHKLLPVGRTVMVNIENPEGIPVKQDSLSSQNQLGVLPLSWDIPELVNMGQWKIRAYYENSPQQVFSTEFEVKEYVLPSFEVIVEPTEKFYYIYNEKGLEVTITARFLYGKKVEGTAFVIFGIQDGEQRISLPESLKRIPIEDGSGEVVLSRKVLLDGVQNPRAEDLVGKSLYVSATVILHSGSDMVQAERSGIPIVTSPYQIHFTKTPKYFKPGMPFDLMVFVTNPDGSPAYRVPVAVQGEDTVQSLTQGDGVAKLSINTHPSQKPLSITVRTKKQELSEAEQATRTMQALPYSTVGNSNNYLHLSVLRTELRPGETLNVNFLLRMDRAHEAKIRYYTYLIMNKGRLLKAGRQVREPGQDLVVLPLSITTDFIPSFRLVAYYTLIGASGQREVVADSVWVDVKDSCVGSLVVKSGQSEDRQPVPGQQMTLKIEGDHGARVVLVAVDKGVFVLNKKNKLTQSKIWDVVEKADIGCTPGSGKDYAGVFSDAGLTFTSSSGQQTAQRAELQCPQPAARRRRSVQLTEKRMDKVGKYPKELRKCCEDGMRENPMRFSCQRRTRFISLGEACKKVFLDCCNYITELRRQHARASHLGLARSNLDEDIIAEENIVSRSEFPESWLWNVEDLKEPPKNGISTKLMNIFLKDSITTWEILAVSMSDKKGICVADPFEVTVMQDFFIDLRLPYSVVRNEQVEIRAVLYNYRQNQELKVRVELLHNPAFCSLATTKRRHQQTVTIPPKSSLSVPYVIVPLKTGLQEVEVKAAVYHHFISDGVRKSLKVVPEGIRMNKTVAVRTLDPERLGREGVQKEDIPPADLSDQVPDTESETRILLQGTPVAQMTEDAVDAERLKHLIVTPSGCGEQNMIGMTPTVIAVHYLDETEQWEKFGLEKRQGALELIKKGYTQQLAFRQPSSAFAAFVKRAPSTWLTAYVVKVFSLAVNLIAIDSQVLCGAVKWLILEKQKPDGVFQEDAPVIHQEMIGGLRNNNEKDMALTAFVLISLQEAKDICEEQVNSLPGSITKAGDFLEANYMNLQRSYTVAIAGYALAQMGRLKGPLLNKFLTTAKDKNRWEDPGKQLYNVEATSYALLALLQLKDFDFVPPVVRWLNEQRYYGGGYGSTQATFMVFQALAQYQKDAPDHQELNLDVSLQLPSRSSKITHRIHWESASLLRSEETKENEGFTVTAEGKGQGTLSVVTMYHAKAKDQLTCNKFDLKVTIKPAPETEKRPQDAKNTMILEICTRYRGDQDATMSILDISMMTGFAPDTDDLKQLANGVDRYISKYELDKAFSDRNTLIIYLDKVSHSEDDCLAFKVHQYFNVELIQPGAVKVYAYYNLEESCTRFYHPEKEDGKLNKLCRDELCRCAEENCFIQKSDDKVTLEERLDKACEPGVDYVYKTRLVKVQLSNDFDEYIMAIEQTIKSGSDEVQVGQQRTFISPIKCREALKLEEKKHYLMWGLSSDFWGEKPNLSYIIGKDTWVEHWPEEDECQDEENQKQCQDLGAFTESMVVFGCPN

Ac-SEYCI[Trp(1-Me)]QDWGEHRC[Sar]EGEK([γGlu-Lys-γGlu-C18 diacid])-NH2 (disulfide 4-14) [Compound 116] and B1 cannot be ordered by “inhibition of hemolysis IC50” value: < 500 nM for the first, < 500 nM for the second.

B2 and B3 cannot be ordered by “inhibition of hemolysis IC50” value: < 500 nM for the first, < 250 nM for the second.

B4 and B5 cannot be ordered by “inhibition of hemolysis IC50” value: < 500 nM for the first, < 250 nM for the second.

Ac-SAYCI[Trp(1-Me)]QDWGEHRC[Sar]EK([γGlu-Gly-Lys-γGlu-C18 diacid])-NH2 (disulfide 4-14) [Compound 105] and B6 cannot be ordered by “inhibition of hemolysis IC50” value: < 100 nM for the first, < 250 nM for the second.

For B7, the “inhibition of hemolysis IC50” value was < 500 nM.
